Earlier results as cited in paper PMC7134607.

Molecular target: SARS main protease (SARS coronavirus) (UniProt P0C6X7)

## SARS main protease (from UniProt P0C6X7)
  Kd: 100 µM
